{"source": "patent US20090324609A1", "molecular_target": "PD-1 receptor on T cells of anti-CD3-activated Balb/c splenocytes (mouse) (UniProt Q02242)", "sequence (Q02242 25-288)": "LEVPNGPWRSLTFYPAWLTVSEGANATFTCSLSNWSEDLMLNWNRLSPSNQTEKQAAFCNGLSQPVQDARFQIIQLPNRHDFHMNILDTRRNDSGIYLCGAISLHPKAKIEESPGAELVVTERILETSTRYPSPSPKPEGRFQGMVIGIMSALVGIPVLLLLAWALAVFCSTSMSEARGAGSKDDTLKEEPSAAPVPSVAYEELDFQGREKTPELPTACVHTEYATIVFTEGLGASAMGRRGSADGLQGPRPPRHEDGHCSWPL", "test": "cell-based or functional assay"}
{"substance": "PD-L1 (Programmed death ligand 1) on the surface of wildtype C57BL/6 mouse mesenchymal stem cells (from UniProt Q9EP73 19-290)", "values": [{"measurement": "Fold suppression of T cell proliferation by wildtype B6 MSCs (CFSE, anti-CD3-activated Balb/c splenocytes)", "result": "> 5", "unit": "fold"}, {"measurement": "Fold suppression of T cell proliferation when PD-L1 is absent from the MSCs (B6 PD-L1-/- MSCs; CFSE, anti-CD3-activated Balb/c splenocytes)", "result": "< 2", "unit": "fold"}, {"measurement": "T cell proliferation (CFSE-labelled Balb/c splenocytes activated with anti-CD3, flow cytometry); percent proliferating with wildtype B6 MSCs, against 87% without MSCs", "result": 16, "unit": "%"}]}
